Test results as given in the supplement of paper PMC7125110.
± gives the standard error. Fewer inactive variants are shown than the library holds.

B1: glmS ribozyme (parent)
chain: AUAAAAGCGCCAGAACUACAGAAAUGUAGUUGACGAGGAGGAGGUUUAUCGAAUUUUCGGCGGAUGCCUCCAAA

Tests used:
Conditions in all cases: with glucosamine-6-phosphate
glucosamine-6-phosphate [1] = variants of: B1; test: self-cleavage kobs at 640 uM GlcN6P; higher = faster cleavage; RNA array
How it was run: (§1)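 On sequenced MiSeq chips, barcoded ribozyme variants were made in situ by E. coli RNA polymerase and followed at 37 °C through a hybridised Cy3 probe. Glucosamine-6-phosphate was flowed in at 40 μM to 10 mM in HEPES/KCl/Mg(OAc)2 buffer. Exponential fits to normalised per-tile medians gave kobs, and weighted Michaelis–Menten fits gave kcat and KM.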

glucosamine-6-phosphate [2] = variants of: B1; test: self-cleavage kobs at 2500 uM GlcN6P; higher = faster cleavage; RNA array
How it was run: as §1

glucosamine-6-phosphate [3] = variants of: B1; test: self-cleavage kobs at 10000 uM GlcN6P; higher = faster cleavage; RNA array
How it was run: as §1

| Variant | self-cleavage kobs at 640 uM GlcN6P (glucosamine-6-phosphate [1]) | self-cleavage kobs at 2500 uM GlcN6P (glucosamine-6-phosphate [2]) | self-cleavage kobs at 10000 uM GlcN6P (glucosamine-6-phosphate [3]) |
| --- | --- | --- | --- |
| C11G A42U G51U G62C | < 1e-05 s⁻¹ | < 1e-05 s⁻¹ | – |
| G38U C58U C67U C70U C71A | 9.38e-05 ± 3.9e-05 s⁻¹ | – | – |
| G32C C67G U69G | < 1e-05 s⁻¹ | – | < 1e-05 s⁻¹ |
| G40A A52G C71A | 0.000146 ± 2.8e-05 s⁻¹ | 0.000203 ± 7.7e-05 s⁻¹ | – |
| A6U A15G A48U | < 1e-05 s⁻¹ | – | – |
| G35C G60A C71U | < 1e-05 s⁻¹ | – | – |
| A52C A53G G60C U65C | < 1e-05 s⁻¹ | – | – |
| A15G G38A G66U | < 1e-05 s⁻¹ | – | – |
| G35A G59A G62U | < 1e-05 s⁻¹ | – | – |
| G7U C10G G13C G44A U69G | < 1e-05 s⁻¹ | – | – |
| G41C G60U U65C C67G C68A | < 1e-05 s⁻¹ | – | – |
| A39U G43C C70G | < 1e-05 s⁻¹ | < 1e-05 s⁻¹ | – |
| C11A G13C U57G | < 1e-05 s⁻¹ | – | – |
| A6C C10A A15G C16G G63A | < 1e-05 s⁻¹ | < 1e-05 s⁻¹ | < 1e-05 s⁻¹ |
| U47C C67A | 0.000623 ± 0.00018 s⁻¹ | 0.000286 ± 9.8e-05 s⁻¹ | 0.000244 ± 8e-05 s⁻¹ |
| C8G C11A A39C | < 1e-05 s⁻¹ | – | – |
| C10G C34G G41U U45A | < 1e-05 s⁻¹ | < 1e-05 s⁻¹ | – |
| C11G A12U A42G | < 1e-05 s⁻¹ | < 1e-05 s⁻¹ | – |
| C11G A53C G59U U69A | < 1e-05 s⁻¹ | – | – |
| G13U G51U U55A | < 1e-05 s⁻¹ | – | – |
| G9A C11U U54A G59A A64G | < 1e-05 s⁻¹ | < 1e-05 s⁻¹ | – |
| A6C G13A G63A | < 1e-05 s⁻¹ | < 1e-05 s⁻¹ | – |
| C8U A12G G66U | < 1e-05 s⁻¹ | – | – |

| Variant | self-cleavage kobs at 640 uM GlcN6P (glucosamine-6-phosphate [1]) | self-cleavage kobs at 2500 uM GlcN6P (glucosamine-6-phosphate [2]) | self-cleavage kobs at 10000 uM GlcN6P (glucosamine-6-phosphate [3]) |
| --- | --- | --- | --- |
| U31A G44A C67U | 0.00323 ± 0.0014 s⁻¹ | 0.00757 ± 0.0024 s⁻¹ | 0.00871 ± 0.0018 s⁻¹ |
| G60U C67G C68U C70G | < 1e-05 s⁻¹ | – | – |
| C16U A33G C68G | 5.07e-05 ± 2.3e-05 s⁻¹ | – | – |
| G9U A36G U45C A48C G60U C68G | < 1e-05 s⁻¹ | < 1e-05 s⁻¹ | < 1e-05 s⁻¹ |
| G13C G38U U56G G63U U69C | < 1e-05 s⁻¹ | < 1e-05 s⁻¹ | – |
| A15U A52G C58U | < 1e-05 s⁻¹ | – | – |
| A12U A15U C34G U47A | < 1e-05 s⁻¹ | – | – |
| A15C C16G A39C | 3.83e-05 ± 1.7e-05 s⁻¹ | 0.000198 ± 3.4e-05 s⁻¹ | – |
| A6C G29U A33U | < 1e-05 s⁻¹ | – | – |
| U31C G38A C71U | < 1e-05 s⁻¹ | – | – |
| A6C G44A A64G | < 1e-05 s⁻¹ | – | – |
| U30C G41C C71U | < 1e-05 s⁻¹ | – | – |
| C10A G38A G51U C70G | 5.43e-05 ± 1.7e-05 s⁻¹ | – | – |
| A12C G13A A14G C16A U17C A18U A39G C50U A52G | < 1e-05 s⁻¹ | – | – |
| G9A G38U U57A | < 1e-05 s⁻¹ | – | – |
| U31A C50G C61G | 0.000119 ± 4.7e-05 s⁻¹ | 0.000103 ± 3.8e-05 s⁻¹ | – |
| A15U A36C G44U C58G G59C C61U G63U U69A | < 1e-05 s⁻¹ | – | – |
| C16U U47A G62U | < 1e-05 s⁻¹ | – | – |
| U45G U46C G59U U65G U69G | < 1e-05 s⁻¹ | < 1e-05 s⁻¹ | – |
| C8G A12U C70U | < 1e-05 s⁻¹ | < 1e-05 s⁻¹ | – |
| U30C G38C A42U | < 1e-05 s⁻¹ | < 1e-05 s⁻¹ | – |
| G32U A33U C34A A36C | < 1e-05 s⁻¹ | < 1e-05 s⁻¹ | – |
| G7A A33G C68G | 0.00031 ± 0.00013 s⁻¹ | 6.13e-05 ± 2.5e-05 s⁻¹ | – |

| Variant | self-cleavage kobs at 640 uM GlcN6P (glucosamine-6-phosphate [1]) | self-cleavage kobs at 2500 uM GlcN6P (glucosamine-6-phosphate [2]) | self-cleavage kobs at 10000 uM GlcN6P (glucosamine-6-phosphate [3]) |
| --- | --- | --- | --- |
| A6U C11U U31C G40A G44A U55A | < 1e-05 s⁻¹ | – | – |
| C16U G29U G40U G62C | < 1e-05 s⁻¹ | – | – |
| G32A G51U C68G | 0.000156 ± 5.8e-05 s⁻¹ | – | – |
| A14G C61G G66U C67G | 0.000103 ± 2.7e-05 s⁻¹ | – | – |
| A33G G59A | < 1e-05 s⁻¹ | – | < 1e-05 s⁻¹ |
| C11A G40C C50U | < 1e-05 s⁻¹ | < 1e-05 s⁻¹ | – |
| A12G G21A G43U G59C C70U | < 1e-05 s⁻¹ | < 1e-05 s⁻¹ | – |
| G35C C58A C67U | < 1e-05 s⁻¹ | – | – |
| G9C C16A G63C C71G | < 1e-05 s⁻¹ | – | – |
| C16G A33C G38U A52U | < 1e-05 s⁻¹ | – | – |
| U47C U69C | 0.000374 ± 0.00011 s⁻¹ | 0.00197 ± 0.00045 s⁻¹ | – |
| U30G A33G U57C | < 1e-05 s⁻¹ | < 1e-05 s⁻¹ | < 1e-05 s⁻¹ |
| C58U A64C | < 1e-05 s⁻¹ | – | – |
| C8A G13U C58A U65G C67G | < 1e-05 s⁻¹ | – | – |
| A14U G44U U69C C71A | < 1e-05 s⁻¹ | – | < 1e-05 s⁻¹ |
| C10A G35A A42U U57G | < 1e-05 s⁻¹ | – | – |
| G63C G66U | < 1e-05 s⁻¹ | < 1e-05 s⁻¹ | < 1e-05 s⁻¹ |
| A14G G37A A52G | 5.33e-05 ± 1.3e-05 s⁻¹ | 9.21e-05 ± 2e-05 s⁻¹ | – |
| G9C A53G U65C | < 1e-05 s⁻¹ | < 1e-05 s⁻¹ | – |
| G13C G43A U49G A52G | < 1e-05 s⁻¹ | < 1e-05 s⁻¹ | – |
| G7U C34U A52U | < 1e-05 s⁻¹ | < 1e-05 s⁻¹ | – |
